Source: patent US20210179728A1 (OSE IMMUNOTHERAPEUTICS, published 2021)

Experiments:
[1] = molecular target: T1, recombinant hSIRPg-His (Sino Biologicals, reference 11828-H08H) (human, UniProt Q9P1W8 29-360); assay: Blitz, SIRPg-His on Ni-NTA biosensor
T1 construct: also called human SIRPg-His; not shown: His tag
Method: (§1) Method: This method was performed with a Blitz (Forte Bio; USA; reference C22-2 No 61010-1). Recombinant hSIRPg-His (Sino Biologicals, Beijing, China; reference 11828-H08H) was immobilized at 10 μg/ml by histidine tail into a Ni-NTA biosensor (Forte Bio; USA; reference 18-0029) for 30 seconds. Then, an anti-SIRPa antibody was associated at 20 μg/mL for 120 seconds. The dissociation of anti-SIRPa antibody was made in kinetics buffer for 120 seconds. Analysis of data was made with the Blitz pro 1.2 software, which calculated association constant (ka) and dissociation constant (kd) and determined the affinity constant KD […].

[2] = molecular target: T2, recombinant hSIRPa (Sino Biologicals, reference 11612-H08H) (human, UniProt P78324 31-370); assay: SPR (Biacore); SIRPa-His immobilized on CM5 chip, antibody injected
T2 construct: also called SIRPa-His; human SIRPa-His; not shown: His tag (histidine tail)
Method in brief: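 His-tagged recombinant human SIRPa was coupled to a CM5 chip at 5 μg/ml (500 RU). Anti-SIRP antibodies were injected at several concentrations at 40 μl/min on a BIAcore 3000.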

[3] = molecular target: T3, recombinant hSIRPb-His (Antibodies-online, reference ABIN3077231) (human, UniProt Q5TFQ8 30-371); assay: BLI (Blitz); SIRPb-His on Ni-NTA biosensor, antibody at 20 ug/ml [B, table A]
T3 construct: also called SIRPb-His (Blitz); not shown: His tag

[4] = molecular target: T2, recombinant hSIRPa (Sino Biologicals, …); assay: ELISA on immobilized hSIRPa-His, anti-human IgG detection, first experiment; first experiment
Method: Method: The binding activity of the anti-SIRPa antibodies was assessed by ELISA.

[5] = molecular target: T1, recombinant hSIRPg-His (Sino …); assay: BLI (Blitz); SIRPg-His on Ni-NTA biosensor, antibody at 10 ug/ml or 20 ug/ml (Example 9) [B, table A]
Method: FIG. 8. (A) Affinity analysis by Blitz of anti-SIRP antibodies on human SIRPg recombinant protein. SIRPg-His recombinant protein was immobilized onto a NINTA biosensor and the indicated antibodies were added at 10 μg/ml. […] (B) Binding analysis by ELISA assay of anti-SIRP antibodies on SIRPg (human SIRPg-His coating and anti-human kappa detection).
as §1

[6] = molecular target: T2, recombinant hSIRPa (Sino Biologicals, …); assay: competition ELISA on immobilized SIRPa-His; competitor biotinylated CD47-Fc at 6 ug/ml, streptavidin-peroxidase [second experiment table]
Method: (§2) Method: For competitive ELISA assay, recombinant hSIRPa (Sino Biologicals, Beijing, China; reference 11612-H08H) was immobilized on plastic at 0.5 μg/ml in carbonate buffer (pH9.2).

[7] = molecular target: T2, recombinant hSIRPa (Sino Biologicals, …); assay: ELISA on immobilized hSIRPa-His, anti-human IgG detection
[8] = molecular target: T2, recombinant hSIRPa (Sino Biologicals, …); assay: BLI (Blitz); SIRPa-His on Ni-NTA biosensor, antibody at 20 ug/ml, no SP-D [B, table A]
[9] = molecular target: T2, recombinant hSIRPa (Sino Biologicals, …); assay: competition ELISA on immobilized SIRPa; competitor CD47Fc at 0.04 ug/ml, anti-human Fc detection
Method: as §2

[10] = molecular target: T2, recombinant hSIRPa (Sino Biologicals, …); assay: BLI (Blitz); SIRPa-His on Ni-NTA biosensor pre-incubated with SP-D at 100 ug/ml, then antibody at 20 ug/ml [B, table A]
Method: FIG. 6. […] SIRPa-His recombinant protein was immobilized onto a NINTA biosensor at 10 μg/ml and the anti-SIRPa antibody was added at 20 μg/ml (saturating concentration).
In a first step, Sirp-a (His) recombinant protein (Sino Biologicals, Beijing, China; reference 11612-H08H) was immobilized at 10 μg/ml by histidine tail into a Ni-NTA biosensor (Forte Bio; USA; reference 18-0029) for 30 seconds. […] Then, anti-SIRPa antibodies were associated at 20 μg/mL (saturating concentration) for 120 seconds. The dissociation of anti-SIRPa antibody was made in kinetics buffer for 120 seconds. Analysis data was made with the Blitz pro 1.2 software, which calculated association constant (ka) and dissociation constant (kd) and determined the affinity constant KD […].

[11] = molecular target: T2, recombinant hSIRPa (Sino Biologicals, …); assay: ELISA on immobilized SIRPa-His, peroxidase anti-human IgG, DO 450nm [panel ICOSL]
Method: Method: For ELISA assay, recombinant hSIRPa (Sino Biologicals, Beijing, China; reference 11612-H08H) was immobilized on plastic at 0.5 μg/ml in carbonate buffer (pH9.2) and different modified anti-SIRPa antibodies were added to measure binding to SIRPa.

[12] = molecular target: T4, CD28Fc (human, UniProt P10747 19-152, limits assumed); assay: ELISA: modified antibody on immobilized SIRPa-His, CD28Fc added and detected with mouse anti-human CD28
T4 construct: not shown: Fc; not specified
Excerpt: FIG. 24. Ligand binding assay with the different modified anti-SIRPa antibodies by ELISA.

T1 sequence (Q9P1W8 29-360 limits assumed): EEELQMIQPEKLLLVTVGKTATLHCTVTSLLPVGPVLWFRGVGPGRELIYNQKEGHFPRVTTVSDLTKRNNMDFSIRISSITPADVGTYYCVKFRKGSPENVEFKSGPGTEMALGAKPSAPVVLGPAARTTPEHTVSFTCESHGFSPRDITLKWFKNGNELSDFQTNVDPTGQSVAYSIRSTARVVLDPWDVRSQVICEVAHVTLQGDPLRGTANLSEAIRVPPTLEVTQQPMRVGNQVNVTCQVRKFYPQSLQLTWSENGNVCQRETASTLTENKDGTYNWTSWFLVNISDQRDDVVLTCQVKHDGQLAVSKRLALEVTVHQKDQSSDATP
T3 sequence (Q5TFQ8 30-371): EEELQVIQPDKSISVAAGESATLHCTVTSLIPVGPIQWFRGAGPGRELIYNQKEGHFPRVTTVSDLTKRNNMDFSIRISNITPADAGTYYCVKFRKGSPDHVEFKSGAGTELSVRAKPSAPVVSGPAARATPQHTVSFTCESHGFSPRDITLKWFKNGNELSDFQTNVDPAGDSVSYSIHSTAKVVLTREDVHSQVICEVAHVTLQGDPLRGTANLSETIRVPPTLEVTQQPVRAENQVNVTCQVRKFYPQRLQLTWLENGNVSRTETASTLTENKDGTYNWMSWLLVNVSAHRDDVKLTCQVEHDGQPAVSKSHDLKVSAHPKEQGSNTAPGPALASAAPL
T2 sequence (P78324 31-370 limits assumed): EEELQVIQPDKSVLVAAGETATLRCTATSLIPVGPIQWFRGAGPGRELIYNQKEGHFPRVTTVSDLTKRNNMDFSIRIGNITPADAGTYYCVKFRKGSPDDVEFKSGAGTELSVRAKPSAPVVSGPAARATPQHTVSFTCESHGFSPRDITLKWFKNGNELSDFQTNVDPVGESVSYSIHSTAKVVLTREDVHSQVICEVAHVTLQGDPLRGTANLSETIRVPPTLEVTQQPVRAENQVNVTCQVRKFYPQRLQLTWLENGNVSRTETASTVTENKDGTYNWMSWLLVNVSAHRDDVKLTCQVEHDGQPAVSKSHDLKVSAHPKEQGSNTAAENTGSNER

B1: HFLB (antibody, human IgG4 S228P, kappa, V domains shown)
VH: EVQLVQSGAEVKKPGESLRISCKASGYSFTSYWVHWVRQMPGKGLEWMGNIDPSDSDTHYSPSFQGHVTLSVDKSISTAYLQLSSLKASDTAMYYCVRGGTGTMAYFAYWGQGTLVTVSS
VL: DVVMTQSPLSLPVTLGQPASISCRSSQSLVHSYGNTYLYWFQQRPGQSPRLLIYRVSNRFSGVPDRFSGSGSGTDFTLKISRVEAEDVGVYYCFQGTHVPYTFGGGTKVEIKR
notes: humanized 18D5 variant
[1]
  Kd: 104 nM
[2]
  Kd: 0.315 nM
  koff: 0.000249 s⁻¹
  kon: 791000 M⁻¹ s⁻¹
[3]
  Kd: 26 nM
  koff: 0.00174 s⁻¹
  kon: 66900 M⁻¹ s⁻¹
[4]
  EC50: 4 ng/mL
[5]
  koff: 0.0123 s⁻¹
  kon: 119000 M⁻¹ s⁻¹
[6]
  IC50: 183 ng/mL

B2: Kwar23 (antibody, V domains shown)
VH: EVQLQQSGAELVKPGASVKLSCTASGFNIKDYYIHWVQQRTEQGLEWIGRIDPEDGETKYAPKFQDKATITADTSSNTAYLHLSSLTSEDTAVYYCARWGAYWGQGTLVTVSS
VL: QIVLTQSPAIMSASPGEKVTLTCSASSSVSSSYLYWYQQKPGSSPKLWIYSTSNLASGVPARFSGSGSGTSYSLTISSMEAEDAASYFCHQWSSYPRTFGAGTKLELK
[7]
  EC50: 3.3 ng/mL
[2]
  Kd: 0.367 nM
  koff: 8.95e-05 s⁻¹
  kon: 244000 M⁻¹ s⁻¹
[3]
  Kd: 2.77 nM
  koff: 0.000794 s⁻¹
  kon: 286000 M⁻¹ s⁻¹
[5]
  Kd: 2.14 nM
  koff: 0.000765 s⁻¹
  kon: 357000 M⁻¹ s⁻¹

B3: mouse antibody 18D5 (antibody, mouse IgG2b, kappa)
heavy: QVQLQQPGAELVRPGSSVKLSCKASGYTFTSYWVHWVKQRPIQGLEWIGNIDPSDSDTHYNQKFKDKASLTVDKSSSTAYMQLSSLTFEDSAVYYCVRGGTGTMAWFAYWGQGTLVTVSAAKTTPPSVYPLAPGCGDTTGSSVTLGCLVKGYFPESVTVTWNSGSLSSSVHTFPALLQSGLYTMSSSVTVPSSTWPSQTVTCSVAHPASSTTVDKKLEPSGPISTINPCPPCKECHKCPAPNLEGGPSVFIFPPNIKDVLMISLTPKVTCVVVDVSEDDPDVQISWFVNNVEVHTAQTQTHREDYNSTIRVVSTLPIQHQDWMSGKEFKCKVNNKDLPSPIERTISKIKGLVRAPQVYILPPPAEQLSRKDVSLTCLVVGFNPGDISVEWTSNGHTEENYKDTAPVLDSDGSYFIYSKLNMKTSKWEKTDSFSCNVRHEGLKNYYLKKTISRSPGK
light: DVVMTQTPLSLPVSLGDQASISCRSSQSLVHSYGNTYLYWYLQKPGQSPKLLIYRVSNRFSGVPDRFSGSGSGTDFTLKISRVEAEDLGVYFCFQGTHVPYTFGSGTKLEIKRADAAPTVSIFPPSSEQLTSGGASVVCFLNNFYPKDINVKWKIDGSERQNGVLNSWTDQDSKDSTYSMSSTLTLTKDEYERHNSYTCEATHKTSTSPIVKSFNRNEC
notes: mouse monoclonal anti-human SIRPa antibody; also called m18D5; m18D5 clone
[2]
  Kd: 0.193 nM
  koff: 1.2e-05 s⁻¹
  kon: 62300 M⁻¹ s⁻¹
[8]
  Kd: 111 nM
  koff: 0.00176 s⁻¹
  kon: 15800 M⁻¹ s⁻¹
[9]
  IC50 (read off the curve): ~500 ng/mL
[10]
  Kd: 28.6 nM
  koff: 0.0109 s⁻¹
  kon: 380000 M⁻¹ s⁻¹

B4: modified anti-SIRPa HEFLB antibody with ECD of ICOSL on the heavy chain (antibody, human IgG4 S228P, kappa)
heavy: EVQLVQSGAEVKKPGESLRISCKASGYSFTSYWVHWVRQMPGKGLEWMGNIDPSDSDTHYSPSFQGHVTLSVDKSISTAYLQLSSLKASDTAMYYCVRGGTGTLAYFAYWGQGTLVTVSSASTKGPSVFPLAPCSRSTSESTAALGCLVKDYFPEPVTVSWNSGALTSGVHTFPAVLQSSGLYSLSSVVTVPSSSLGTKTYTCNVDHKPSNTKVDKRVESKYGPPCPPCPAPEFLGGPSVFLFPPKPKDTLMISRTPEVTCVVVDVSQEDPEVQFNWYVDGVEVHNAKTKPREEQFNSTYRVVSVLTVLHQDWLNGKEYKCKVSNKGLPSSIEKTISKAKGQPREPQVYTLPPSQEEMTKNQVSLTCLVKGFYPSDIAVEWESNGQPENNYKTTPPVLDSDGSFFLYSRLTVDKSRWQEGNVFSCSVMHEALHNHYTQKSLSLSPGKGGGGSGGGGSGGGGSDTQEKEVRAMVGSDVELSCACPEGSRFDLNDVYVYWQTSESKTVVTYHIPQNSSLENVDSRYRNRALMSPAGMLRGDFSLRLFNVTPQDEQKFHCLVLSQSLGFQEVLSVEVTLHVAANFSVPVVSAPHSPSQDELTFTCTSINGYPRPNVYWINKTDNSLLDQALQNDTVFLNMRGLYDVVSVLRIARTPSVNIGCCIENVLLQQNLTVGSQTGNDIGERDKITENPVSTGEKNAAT
light: DVVMTQSPLSLPVTLGQPASISCRSSQSLVHSYGNTYLYWFQQRPGQSPRLLIYRVSNRFSGVPDRFSGSGSGTDFTLKISRVEAEDVGVYYCFQGTHVPYTFGGGTKVEIKRTVAAPSVFIFPPSDEQLKSGTASVVCLLNNFYPREAKVQWKVDNALQSGNSQESVTEQDSKDSTYSLSSTLTLSKADYEKHKVYACEVTHQGLSSPVTKSFNRGEC
notes: as m25, ECD of ICOSL; also called VHprot+VL (ICOSL); HEF-ICOSL + LB
[11]
  EC50 (read off the curve): ~8 ng/mL
[12]
  binding result: binds
